Laboratory results as given in patent US20070082843A1.

Target: melanocortin-4 receptor (MC4R) (UniProt P32245)
Test: competitive binding vs [125I]-NDP-alpha-MSH (receptor not given; MC4R by Example 3)

Chain of UniProt P32245 (P32245 whole entry): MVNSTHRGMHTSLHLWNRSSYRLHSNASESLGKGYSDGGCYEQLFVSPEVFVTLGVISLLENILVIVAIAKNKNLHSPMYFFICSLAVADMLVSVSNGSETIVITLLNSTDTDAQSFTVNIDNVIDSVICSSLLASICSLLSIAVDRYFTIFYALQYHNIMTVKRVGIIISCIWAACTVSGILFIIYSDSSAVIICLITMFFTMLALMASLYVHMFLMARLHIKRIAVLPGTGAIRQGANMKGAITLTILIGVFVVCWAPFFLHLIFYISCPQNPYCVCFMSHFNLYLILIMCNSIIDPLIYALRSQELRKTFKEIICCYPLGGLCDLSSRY

IC50: 5 to 30 nM
Substance: melanotan II (MTII) (peptide)
